The koff is the rate constant with which the complex falls apart.

In this assay the target is Recombinant SARS-CoV-2 S trimer protein (ACRO Biosystems SPN-C52H9) (SARS-CoV-2, UniProt P0DTC2). Kind of assay: SPR. A general note: SPR reads the build-up and loss of mass on a sensor chip optically.

B1: KIH format bivalent MW01 (MW01/KIH) (antibody, V domains shown)
VH: EVQLVQSGAEVKKPGSSVKVSCKASGGTFSSFSISWVRQAPGQGLEWMGRIIPVLGIANYAQEVQGRVTITADKSTSTAYMELSSLRSEDTAVYFCTTDRFVEPATGPFFDYWGQGTLVTVSS
VL: EIVMTQSPATLSVSPGERATLSCRASQSVSSNLAWYQQKPGQAPRLLIYGASTRATGIPARFSGSGSGTEFTLTISSLQSEDFAVYYCQQYSNWLTFGGGTKVEIK
Consider B1, for which the koff stood at 0.000408 s⁻¹.

These data come from publication PMC8948278 (2022).
